Source: publication PMC11843870

Target: Xn-XptA2 wt (A subunit, TcA, of the ABC toxin complex of Xenorhabdus nematophilus) (Xenorhabdus nematophilus)
Assay: cryo-EM structure; single particle analysis, 1.5 mg/mL protein in 10 mM Tris, 100 mM NaCl, pH 7.5; C5 symmetry

## Xn-XptA2 wt (A subunit, TcA, of the ABC toxin complex of Xenorhabdus nematophilus) (natural protein)
  stoichiometry N: 5
